# Test results taken from PMC8443317.
# Target: recombinant human angiotensin-converting enzyme 2 (ACE2) receptor, biotinylated (human) (UniProt Q9BYF1)
# Assay: SPR
Substance,Kd [nM],koff [s⁻¹],kon [M⁻¹ s⁻¹]
SARS-CoV-2 spike S1 variant D614G (domain or fragment),42.2,0.00578,138000
recombinant original SARS-CoV-2 spike S1 protein (domain or fragment),10.5,,
